From article PMC8930183, “Structure of the Pf12 and Pf41 heterodimeric complex of Plasmodium falciparum 6-cysteine proteins” (FEMS Microbes, 2022)
Numbering of substitutions follows the chain as printed.

T1: Pf12 labelled with DyLight 488 (Plasmodium falciparum (sequence as 3D7), DyLight 488 (N-hydroxysuccinimide ester), about 2.4 dye per protein)
T1 construct: Pf12, Plasmodium falciparum 6-cysteine protein; The FRET methods say only 'Pf12'; also called Pf12-DL488
T1 chain: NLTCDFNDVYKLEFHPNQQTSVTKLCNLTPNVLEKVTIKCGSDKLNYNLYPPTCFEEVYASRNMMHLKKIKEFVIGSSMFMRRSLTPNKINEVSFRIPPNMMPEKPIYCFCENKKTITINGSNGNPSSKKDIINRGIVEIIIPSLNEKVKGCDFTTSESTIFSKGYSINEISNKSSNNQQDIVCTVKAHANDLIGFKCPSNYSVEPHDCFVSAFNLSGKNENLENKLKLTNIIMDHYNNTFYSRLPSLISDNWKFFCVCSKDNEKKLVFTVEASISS

T2: octa-histidine tagged Pf41 D1D2 (residues 21-368) (Plasmodium falciparum, UniProt Q8I1Y0 21-368)
T2 construct: Pf41, Plasmodium falciparum 6-cysteine protein, residues K21-S368; TEV-cleavable tag left on; loaded on NTA sensors; also called tagged wildtype Pf41; source: Spodoptera frugiperda 21 cells, secreted into growth media, purified as tagged protein (Ni-IMAC, SEC); not shown: His8, N-terminal, kept
T2 sequence: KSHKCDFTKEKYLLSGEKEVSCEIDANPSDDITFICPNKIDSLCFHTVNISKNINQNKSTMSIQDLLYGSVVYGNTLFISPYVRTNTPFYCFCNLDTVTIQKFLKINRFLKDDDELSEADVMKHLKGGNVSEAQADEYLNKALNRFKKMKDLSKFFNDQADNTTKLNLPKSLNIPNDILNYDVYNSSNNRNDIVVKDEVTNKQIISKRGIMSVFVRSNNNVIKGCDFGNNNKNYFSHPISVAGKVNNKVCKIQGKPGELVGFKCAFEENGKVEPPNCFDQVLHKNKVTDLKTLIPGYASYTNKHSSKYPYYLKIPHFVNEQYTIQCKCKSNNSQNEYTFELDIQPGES

B1: nanobody H9 (VHH)
VHH: QVQLQESGGGLVQPGGSLRLSCAASGFTLDYYAIGWFRQAPGKEREGVSCIMSSDGSTYYADSVKGRFTISRDNAVNTVYLQMNGLKPEDTAVYYCATDKIVCGSGFIVDYGTDYRGKGTQVTVSS
notes: alpaca, immunised with Pf12-Pf41 complex; Pf12-specific; source: E. coli WK6, periplasmic extract, purified (HisTrap, SEC)
B2: nanobody A3 (VHH)
VHH: QVQLQESGGGLVQAGGSLRLSCAASGRTFSNYAMGWFRQAPGKEREFVAAITWSGDSTYYGDSVKGRFTISRDNAKSTAYLQMNSLKPEDTAVYYCAADEAVVTTTLQWDYWGQGTQVTVSS
notes: as for B1
B3: nanobody G7 (VHH)
VHH: QVQLQESGGGLVQAGGSLRLSCAASGRTFSSYGMGWFRQAPGTEREFVAAISWSGDSTYYADSVKGRFTISIDKAKNTVYLQMNSLKPEDTAVYYCAADHALVVGGTYNYWGQGTQVTVSS
notes: alpaca, immunised with Pf12-Pf41 complex; Pf12-specific; also called Nb G7; source: E. coli WK6, periplasmic extract, purified (HisTrap, SEC)
B4: nanobody A11 (VHH)
VHH: QVQLQESGGGLVQPGGSLRLSCAASGFTFDDYAIGWFRQAPGKEREGVSCIMSSDGSAYYADSVKGRFTISRDNAKNTVYLQMNSLRPEDTANYYCATDKIVCSTGFIVDYGMHYGGKGTQVTVSS
notes: as for B1
B5: nanobody D12 (VHH)
VHH: QVQLQESGGGLVEAGGSLRLSCAASTRTFSSLVMGWFRQAPGKERELVAAISRSGDSTDYTDSVKGRFTISRDNAKNTVYLQMNSLKPEDTAVYSCAADPTGVDSSLAVGLWVYWGQGTQVTVSS
notes: as for B1
B6: nanobody C12 (VHH)
VHH: QVQLQESGGGLVQAGGSLRLSCAASGRTFSSYSMGWFRQAPGKQRELVAAISSGGSTDYTDSVKGRFTISRDNAKNTVYLQMNSLKPEDTAVYYCAAGDYSDYVGMWDIWGQGTQVTVSS
notes: as for B1
B7: nanobody A10 (VHH)
VHH: B1 VHH with L11F, A33F, M52S, D62E, V76K, G85S, G104S, G106D, T113M, Y115S
notes: as for B1
B8: nanobody B5 (VHH)
VHH: QVQLQESGGGLVQPGGSLRLSCAASGFTLDEYAMGWFRQAPGKEREGISCISSSDGTTFYADSVKGRFTISRDNAKNTVYLQMNSLKPEDTAVYYCATDCVGSYSRYWGQGTQVTVSS
notes: alpaca, immunised with Pf12-Pf41 complex; Pf12-specific; The 'Nb B5 of PDB ID 7KJH' used as a search model may be another nanobody of the same label; source: E. coli WK6, periplasmic extract, purified (HisTrap, SEC)
B9: nanobody B11 (VHH)
VHH: QVQLQESGGGLVQAGGSLRLSCAASGRTFSSYAMGWFRQAPGKEREFVAAISWNGGRTYYADSVKGRFTISRDNAKNTVYLQMNSLKPEDTAVYYCAADPTGTVDDETGIYVYWGQGTQVTVSS
notes: as for B1
B10: nanobody H11 (VHH)
VHH: QVQLQESGGGLVQPGGSLRLSCAGSGFTLDHYAIGWFRQAPGKEREGVSCIISSDSSTYYTDSVKGRFTISRDNAKNTVYLQMNSLKPEDTAVYYCATEKIVCASGFIVDYGMDYCGKGTQVTVSS
notes: as for B1
B11: nanobody C9 (VHH)
VHH: QVQLQESGGGLVQPGGSLRLSCAASGFTLDYYAIGWFRQAPGKEREGVSCISSSGGSTYYADSVKGRSTISRDNAKNTVYLQMNSLKPEDTAVYYCATDCLRDYGLEYVPGRYDYWGQGTQVTVSS
notes: as for B1
B12: nanobody C1 (VHH)
VHH: QVQLQESGGGLVQPGASLRLSCTVSGIIMADHAIGWFRQAPGKEREGIACFIRSDGTTYYSDSAKGRFTISRDNAKNTVYLQMNSLKPEDTADYYCATGKIVCANGFIVDYGSDYRGKGTQVTVSS
notes: as for B1
B13: nanobody A6 (VHH)
VHH: QVQLQESGGGLVQPGGSLRLSCAASGGTIRSDGMGWFRQVPKKEREFVGMITYMGPVYTADSVEGRFAISRDNVKNTVYLQMNNLQPEDTAVYYCAVHVGGIYYYEGSYEYWGQGTQVTVSS
notes: alpaca, immunised with Pf12-Pf41 complex; Pf41-specific; source: E. coli WK6, periplasmic extract, purified (HisTrap, SEC)
B14: nanobody G11 (VHH)
VHH: B13 VHH with G33S, E64K, A68T, T90A, V99I, G100S, I102L, G107A, E110K
notes: as for B13
B15: Pf12 D1D2 F241L (domain or fragment)
chain: T1 chain with F214L
notes: Pf12, Plasmodium falciparum, residues N28-S304 (D1D2); source: Spodoptera frugiperda 21 cells, purified (Ni-IMAC, TEV cleavage, SEC); not shown: His8, N-terminal, cleaved
B16: Pf12 D1D2 H234A (domain or fragment)
chain: T1 chain with H207A
notes: as for B15
B17: Pf12 D1D2 M108A (domain or fragment)
chain: T1 chain with M81A
notes: as for B15
B18: Pf12 D1D2 R109A (domain or fragment)
chain: T1 chain with R82A
notes: as for B15
B19: Pf12 D1D2 R110A (domain or fragment)
chain: T1 chain with R83A
notes: as for B15
B20: Pf12 D1D2 M106A (domain or fragment)
chain: T1 chain with M79A
notes: as for B15
B21: Pf12 D1D2 R123A (domain or fragment)
chain: T1 chain with R96A
notes: as for B15

Molecular target: T1, Pf12 labelled with DyLight 488
Test: FRET or BRET; Pf12-DL488 and Pf41-DL594 mixed 1:1 with five-fold excess of nanobody; FRET signal relative to the no-nanobody control
Conditions: both partners purified

| Binder | percent reduction of the Pf12-Pf41 FRET signal |
| --- | --- |
| B1 | ~90% |
| B2 | ~90% |
| B3 | ~80% |
| B4 | ~90% |

Molecular target: T3, Pf12 D1D2 (residues 28-304), untagged (Plasmodium falciparum, UniProt C6KSX0)
T3 construct: Pf12, Plasmodium falciparum 6-cysteine protein, residues N28-S304 (domains D1 and D2); lacks the signal peptide and the GPI-anchor site; After TEV cleavage three residues, GAS, remain at the N-terminus as cloning artefacts; N-glycosylation sites kept; treated with PNGase F before crystallisation; also called Pf12 wildtype; source: Spodoptera frugiperda 21 cells, secreted into growth media, …
Test: BLI; Octet RED96e; nanobodies loaded on NTA sensors; untagged Pf12 or Pf41 (6-200 nM) or their domains in solution; PBS pH 7.4, 0.1% BSA, 0.05% TWEEN-20, 25°C; global 1:1 fit
Conditions: both partners purified

| Binder | binding result | Kd |
| --- | --- | --- |
| B5 | binds |  |
| B6 | binds |  |
| B7 |  | < 0.01 nM |
| B1 |  | < 0.01 nM |
| B8 |  | < 0.01 nM |
| B9 | binds |  |
| B10 | binds |  |
| B2 | binds |  |
| B3 |  | ~25 nM |
| B4 | binds |  |
| B11 |  | < 0.01 nM |
| B12 | binds |  |

Molecular target: T4, Pf41 D1D2 (residues 21-368), untagged (Plasmodium falciparum, UniProt Q8I1Y0)
T4 construct: Pf41, Plasmodium falciparum 6-cysteine protein, residues K21-S368 (D1 with the inserted-domain-like region ID, and D2); lacks the signal peptide and ten C-terminal residues; After TEV cleavage three residues, GAS, remain at the N-terminus as cloning artefacts; N-glycosylation sites kept; treated with PNGase F before crystallisation; also called Pf41 wildtype; source: Spodoptera frugiperda 21 …
Test: as above
Conditions: both partners purified

| Binder | binding result |
| --- | --- |
| B5 | no binding |
| B6 | no binding |
| B7 | no binding |
| B1 | no binding |
| B8 | no binding |
| B13 | binds |
| B14 | binds |
| B9 | no binding |
| B10 | no binding |
| B2 | no binding |
| B3 | no binding |
| B4 | no binding |
| B11 | no binding |
| B12 | no binding |

Molecular target: T5, Pf12 D2 (residues E174-S304) (Plasmodium falciparum, UniProt C6KSX0)
T5 construct: Pf12, Plasmodium falciparum, C-terminal 6-cys domain D2, residues E174-S304; also called Pf12 D2 domain; source: Spodoptera frugiperda 21 cells, purified by the same protocol as Pf12 D1D2; not shown: His8, N-terminal, cleaved
Test: as above
Conditions: both partners purified

| Binder | binding result |
| --- | --- |
| B5 | binds |
| B6 | binds |
| B9 | binds |
| B10 | binds |
| B2 | binds |
| B4 | binds |
| B12 | binds |

Molecular target: T6, Pf41 D2 (residues I242-S368) (Plasmodium falciparum 3D7, UniProt Q8I1Y0)
T6 construct: Pf41, Plasmodium falciparum, C-terminal 6-cys domain D2, residues I242-S368; also called Pf41 D2 domain; source: Spodoptera frugiperda 21 cells, purified by the same protocol as Pf41 D1D2; not shown: His8, N-terminal, cleaved
Test: as above
Conditions: both partners purified

| Binder | binding result |
| --- | --- |
| B13 | no binding |
| B14 | no binding |

Molecular target: T2, octa-histidine tagged Pf41 D1D2 …
Test: BLI; Octet RED96e; octa-histidine tagged Pf41 loaded on NTA sensors; untagged Pf12 wildtype, mutant or single domain 31-1000 nM; PBS pH 7.4, 0.1% BSA, 0.05% TWEEN-20, 25°C; read-out relative maximum response against wildtype
Conditions: both partners purified

| Binder | binding result |
| --- | --- |
| B15 | binds |
| B16 | binds |
| B17 | binds |
| B18 | binds |
| B19 | binds |
| B20 | binds |
| B21 | binds |
